Reference: patent US20190142971A1, “FORMULATION AND DELIVERY OF MODIFIED NUCLEOSIDE, NUCLEOTIDE, AND NUCLEIC ACID COMPOSITIONS” (ModernaTX, Inc., priority 2013, published 2019)
Where two headings read alike, the source gives them in different places.

Assays:
HEK 293A cells = assay: Example 64B: Factor IX mRNA half-life by quantitative Real-Time PCR; type: cell-based, Human; conditions: HEK293
Experimental: The transfection complexes were removed 3 hours after transfection. […] Total RNA was isolated and used for cDNA synthesis.

mouse myoblast (C2C12) = assay: Example 44: signal sequence exchange, secreted G-CSF ELISA (Table 70); type: cell-based; conditions: MM (mouse myoblast C2C12), 250 ng mRNA, supernatant 24 hrs
Text: (§1) These variants included the G-CSF constructs encoding either the wild-type N terminal secretory signal peptide sequence ([…]; SEQ ID NO: 19), no secretory signal peptide sequence, or secretory signal peptide sequences taken from other mRNAs. These included sequences where the wild type GCSF signal peptide sequence was replaced with the signal peptide sequence of either: human α-1-anti trypsin (AAT) ([…]; SEQ ID NO: 20), human Factor IX (FIX) ([…]; SEQ ID NO: 21), human Prolactin (Prolac) ([…]; SEQ ID NO: 22), or human Albumin (Alb) ([…]; SEQ ID NO: 23).
(§2) 250 ng of modified mRNA encoding each G-CSF variant was transfected into HEK293A (293A in the table), mouse myoblast (MM in the table) (C2C12, CRL-1772, ATCC) and rat myoblast (RM in the table) (L6 line, CRL-1458, ATCC) cell lines in a 24 well plate using 1 ul of Lipofectamine 2000 (Life Technologies), each well containing 300,000 cells. […] The data shown in Table 70 reveal that cells transfected with G-CSF mmRNA encoding the Albumin signal peptide secrete at least 12 fold more G-CSF protein than its wild type counterpart.

HEK293A = assay: as above; type: cell-based; conditions: 293A, 250 ng mRNA, Lipofectamine 2000, supernatant 24 hrs
Text: as §1, §2

rat myoblast (L6 line) = assay: as above; type: cell-based; conditions: RM (rat myoblast L6), 250 ng mRNA, supernatant 24 hrs
Text: as §1, §2

mice [1] = conditions: for Serum Concentration 8-12 hours after administration: Factor IX; for Factor IX Protein Expression, Conc: LNP IV, mice, 8 hrs
mice [2] = assay: Example 39: Factor IX mmRNA IM in mice, serum Factor IX at 13 hours; type: in vivo; conditions: 2×100 ug/mouse IM
Experimental: Human Factor IX mmRNA (Gen1; fully modified 5-methycytosine and pseudouridine) formulated in formulation buffer was delivered to mice via intramuscular injection.
The mice were bled at 13 hours after the intramuscular injection to determine the concentration of human the polypeptide in serum in pg/mL.

[3] = Example 64A: Factor IX mRNA in serum-free media, peptides by MALDI; type: cell-based
Text: The cell culture supernatant was collected and subjected to trypsin digestion before undergoing 2-dimensional HPLC separation of the peptides. Matrix-assisted laser desorption/ionization was used to detect the peptides. 8 peptides were detected and 7 of the detected peptides are unique to Factor IX.

Sprague Dawley rats = assay: Example 60: G-CSF/Factor IX mRNA IM in rats, serum G-CSF ELISA (Table 94); type: in vivo
Experimental: Protein production of modified mRNA was evaluated by delivering modified G-CSF mRNA or modified Factor IX mRNA to female Sprague Dawley rats (n=6). […] Blood was collected 8 hours after injection and the G-CSF protein level in serum was measured by ELISA.

C57/BL6 mice = assay: Example 32C: G-CSF lipoplex vs saline IM, SC in mice, serum G-CSF ELISA at 13 hours (Table 57); type: in vivo; conditions: IM or SC
Experimental: A formulation containing 100 μg of either modified human G-CSF mRNA lipoplexed with 30% by volume of RNAIMAX™ with a 5-methylcytosine (5mc) and a pseudouridine (ψ) modification (G-CSF-Gen1-Lipoplex), modified human G-CSF mRNA with a 5mc and ψ modification in saline (G-CSF-Gen1-Saline), modified human G-CSF mRNA with a N1-5-methylcytosine (N1-5mc) and a ψ modification lipoplexed with 30% by volume of RNAIMAX™ (G-CSF-Gen2-Lipoplex), modified human G-CSF mRNA with a N1-5mc and ψ modification in saline (G-CSF-Gen2-Saline), modified luciferase with a 5mc and ψ modification lipoplexed with 30% by volume of RNAIMAX™ (Luc-Lipoplex), or modified luciferase mRNA with a a 5mc and w modification in saline (Luc-Saline) was delivered intramuscularly (I.M.) or subcutaneously (S.C.) and a control group for each method of administration was giving a dose of 80 uL of the formulation buffer (F. Buffer) to C57/BL6 mice. 13 hours post injection serum and tissue from the site of injection were collected from each mouse and analyzed by G-CSF ELISA to compare human G-CSF protein levels. The results of the human G-CSF protein in mouse serum from the intramuscular administration and the subcutaneous administration results are shown in Table 57.

human PBMC [4] = assay: Example 45: PBMC transfection, IFN-alpha ELISA (Table 72); type: cell-based
Experimental: (§3) The plates were then incubated at 37 C.
(§4) Each condition was done in duplicate.
(§5) Shown in Tables 71 and 72 are the average from 2 separate PBMC donors of the G-CSF and IFN-alpha production over time as measured by specific ELISA.

BJ fibroblasts = conditions: for IFN-beta / IL-6: 250 ng transfected daily for 5 days
BALB/C mice = assay: Example 59: G-CSF mRNA IM in mice, serum human G-CSF and mouse IFN-alpha ELISA (Table 93); type: in vivo
mice [5] = assay: Example 40: multi-site IM/SC G-CSF mRNA in mice, neutrophil count (Table 65); type: in vivo; conditions: day 3
Experimental: Injection of four doses or 2×50 ug (two sites) daily for three days (24 hrs interval) was performed. The fourth dose was administered 6 hrs before blood collection and CBC analysis. […] The mice were bled at 72 hours after the first mRNA injection (6 hours after the last mRNA dose) to determine the effect of mRNA-encoded human G-CSF on the neutrophil count. The dosing regimen is shown in Table 65 as are the resulting neutrophil counts (thousands/uL). In Table 65, an asterisks (*) indicate statistical significance at p<0.05.

human PBMC [6] = assay: Example 45: PBMC transfection, G-CSF ELISA (Table 71); type: cell-based
Experimental: as §3, §4, §5

In the case of “Factor IX: modified mRNA encoding human Factor IX, SEQ ID NO: 8, Cap1, fully modified with 5-methylcytosine and pseudouridine”, the “half-life of mRNA” value (HEK 293A cells) is reported as 8 to 10 h, the “secreted G-CSF protein” value (mouse myoblast (C2C12)) is reported as 6175 pg/mL and the “secreted G-CSF protein” value (HEK293A) is reported as 11675 pg/mL. For the same molecule, the “secreted G-CSF protein” value (rat myoblast (L6 line)) was 11675 pg/mL, the “Factor IX protein expression determined by ELISA” value (mice [1]; 100 ug dose group) was 3000 to 11000 ng/mL and the “Serum Concentration 8-12 hours after administration” value (“Serum Concentration 8-12 hours” for short) (mice [1]; IM, 2 × 100 ug) was roughly 1.6 ng/mL. For the same molecule, the “Serum Concentration 8-12 hours” value (mice [1]; IV (LNP), 1 ug) was roughly 40 ng/mL, the “Serum Concentration 8-12 hours” value (mice [1]; IV (LNP), 10 ug) was roughly 400 ng/mL and the “Serum Concentration 8-12 hours” value (mice [1]; IV (LNP), 100 ug) was ~3,000-10,000 ng/ml. For the same molecule, the “Factor IX Protein Expression, Conc” value (mice [1]; dose 10 ug) was 383.04 ng/mL, the “Factor IX Protein Expression, Conc” value (mice [1]; dose 100 ug, dilution factor 50x) was 3247.75 ng/mL and the “Factor IX Protein Expression, Conc” value (mice [1]; dose 100 ug, dilution factor 250x) was 11177.20 ng/mL. The “Factor IX in serum” value (mice [2]) was 1600 pg/mL and the “Factor IX protein expression (peptides by MALDI)” value [3] was “able to express full-length Factor IX protein”.

B1: G-CSF Gen 2: G-CSF mRNA (SEQ ID NO: 4) fully modified with 5-methylcytosine and N1-methylpseudouridine (nucleic acid)
chain: GGGAAAUAAGAGAGAAAAGAAGAGUAAGAAGAAAUAUAAGAGCCACCAUGGCCGGUCCCGCGACCCAAAGCCCCAUGAAACUUAUGGCCCUGCAGUUGCUGCUUUGGCACUCGGCCCUCUGGACAGUCCAAGAAGCGACUCCUCUCGGACCUGCCUCAUCGUUGCCGCAGUCAUUCCUUUUGAAGUGUCUGGAGCAGGUGCGAAAGAUUCAGGGCGAUGGAGCCGCACUCCAAGAGAAGCUCUGCGCGACAUACAAACUUUGCCAUCCCGAGGAGCUCGUACUGCUCGGGCACAGCUUGGGGAUUCCCUGGGCUCCUCUCUCGUCCUGUCCGUCGCAGGCUUUGCAGUUGGCAGGGUGCCUUUCCCAGCUCCACUCCGGUUUGUUCUUGUAUCAGGGACUGCUGCAAGCCCUUGAGGGAAUCUCGCCAGAAUUGGGCCCGACGCUGGACACGUUGCAGCUCGACGUGGCGGAUUUCGCAACAACCAUCUGGCAGCAGAUGGAGGAACUGGGGAUGGCACCCGCGCUGCAGCCCACGCAGGGGGCAAUGCCGGCCUUUGCGUCCGCGUUUCAGCGCAGGGCGGGUGGAGUCCUCGUAGCGAGCCACCUUCAAUCAUUUUUGGAAGUCUCGUACCGGGUGCUGAGACAUCUUGCGCAGCCGUGAAGCGCUGCCUUCUGCGGGGCUUGCCUUCUGGCCAUGCCCUUCUUCUCUCCCUUGCACCUGUACCUCUUGGUCUUUGAAUAAAGCCUGAGUAGGAAG
modifications: 5-methylcytosine, N1-methylpseudouridine
In the case of B1, the “human G-CSF protein production, Gen 2 vs Gen 1 chemistry” value (Sprague Dawley rats; 400 ug IM, rats, 8 hours) is reported as “human G-CSF protein production is improved”, the “G-CSF protein in rat serum” value (Sprague Dawley rats; I.M., 400 ug in 100 ul, 5% sucrose, 8 hours after injection) is reported as 64.72 pg/mL and the “human G-CSF protein production relative to 5-methylcytosine/pseudouridine mRNA” value (C57/BL6 mice) is reported as “increased human G-CSF protein production”. The “IFN-alpha / cytokine production” value (human PBMC [4]) was “did not significantly increase cytokines”, the “time to cytokine response (IFN-beta, IL-6)” value (BJ fibroblasts) was 3 to 5 days and the IFN-beta (BJ fibroblasts; 6 hours) was 0 pg/mL. For the same molecule, the IL-6 (BJ fibroblasts; 6 hours) was 3337 pg/mL, the IFN-beta (BJ fibroblasts; Day 1) was 0 pg/mL and the IL-6 (BJ fibroblasts; Day 1) was 3733 pg/mL. It also gave an IFN-beta (BJ fibroblasts; Day 2) of 150 pg/mL, an IL-6 (BJ fibroblasts; Day 2) of 974 pg/mL and an IFN-beta (BJ fibroblasts; Day 3) of 213 pg/mL. The IL-6 (BJ fibroblasts; Day 3) was 4972 pg/mL, the IFN-beta (BJ fibroblasts; Day 4) was 1400 pg/mL and the IL-6 (BJ fibroblasts; Day 4) was 4122 pg/mL. For the same molecule, the IFN-beta (BJ fibroblasts; Day 5) was 350 pg/mL, the IL-6 (BJ fibroblasts; Day 5) was 2906 pg/mL and the “Protein: Cytokine Ratio (PC Ratio)” value (BALB/C mice; G-CSF / IFN-alpha) was 748. The “human G-CSF expression in mouse serum” value (BALB/C mice; IM, 8 hours) was “resulted in human G-CSF expression in mouse serum”, the “mouse IFN-alpha in the serum (cytokine response)” value (BALB/C mice; IM, 8 hours) was “no detectable IFN-alpha” and the “increase in neutrophil count above control” value (mice [5]; intramuscular) was “two fold increase”. For the same molecule, the “increase in neutrophil count above control” value (mice [5]; subcutaneous) was “two fold increase” and the G-CSF production (human PBMC [6]) was “highest level of G-CSF production”.
